Results reported in patent US20130071379A1 (Merck Sharp & Dohme, published 2013).
Each block holds one binder with its values, some of them ahead of it.

Assays:
[1] = biological target: T1, AlexaFluor647-labeled PCSK9; experiment: TR-FRET competition assay: 1B20 titrated against 10 nM AF647-PCSK9; the blocked ligand is Eu-sLDLR (about 4 nM); the Ratio falls from about 6200 to about 1000 (right curve, squares)
T1 construct: Used in the TR-FRET assay and in the internalization assay; also called AF647-PCSK9; AF-labeled PCSK9
Method: (§1) AlexaFluor647-labeled PCSK9 (final concentration 10 nM) was combined with varying amounts of 1B20 and to this was added Eu(8044)-labeled LDLR ectodomain to a final concentration of ˜4 nM (sufficient to give ˜20,000 counts at F1620 nM on the Rubystar) in […] (pH 7.4), 150 mM NaCl, 0.1 mM CaCl₂, 0.05% (w/v) BSA in a total volume of 50 μL using 96 well black Dynatech U bottom plates. After at least 90 minutes of equilibration, samples were read in a Rubystar reader (BMG Corp.) using 20 flashes per well, a 50 usec integration delay, and a 200 usec total integration time. Data were expressed as the ratio of (F1665/F1620×10000) and an IC₅₀ for 1B20 was determined from the inflection point of a sigmoidal dose-response curve using a standard four parameter fit.

[2] = biological target: T2, mPCSK9v5His (mouse, UniProt Q80W65 35-694); experiment: cell-based or functional assay
[3] = biological target: T3, hPCSK9v5His (human, UniProt Q8NBP7 31-692); experiment: cell-based or functional assay
[4] = biological target: T2, mPCSK9v5His; experiment: SPR Biacore 2000; Fab captured on anti-Fab IgG, PCSK9 in flow
Method: (§2) Anti-Fab IgG (Human specific) (Sigma, catalog #15260) was covalently coupled to surfaces 1 and 2 of a Sensor Chip CM5 via primary amine groups, using the immobilization wizard with the “Aim for immobilization” option using Biacore™ Amine Coupling Kit (cat#BR-1000-50. A target immobilization of 5000 RU was specified. The wizard uses a 7 minute activation with a 1:1 mixture of 100 mM NHS (N-Hydroxysuccinimide) and 400 mM EDC (1-ethyl-3-(3-dimethylaminopropyl)-carbodiimide), injects the ligand in several pulses to achieve the desired level, then deactivates the remaining surface with a 7 minute pulse of ethanolamine.
(§3) Anti-PCSK9 Fabs were captured on capture surface 2, and surface 1 was used as a reference for kinetic studies of Fab:PCSK9 interactions. […] 5-10 concentrations of hPCSK9v5H is or mPCSK9v5His antigens were flowed across the surface at […] for 3-4 minutes. 15-60 minutes dissociation time was allowed before regeneration of the Anti-Fab surface with a 30 second pulse of 10 mM glycine pH 2.0.
(§4) BiaEvaluation Software was used to evaluate the sensograms from the multiple concentration of PCSK9 antigen analyzed with each Fab, to estimate the kinetics constants of the Fab:PCSK9 interactions.

[5] = biological target: T3, hPCSK9v5His; experiment: as above
Method: as §2, §3, §4

[6] = biological target: T1, AlexaFluor647-labeled PCSK9; experiment: TR-FRET competition assay: 1B20 titrated against 10 nM AF647-PCSK9; the blocked ligand is Eu-sLDLR (about 4 nM); the Ratio falls from about 6200 to about 1000 (left curve, circles)
Method: as §1

[7] = biological target: T2, mPCSK9v5His; experiment: SPR Biacore 2000; IgG captured on goat anti-human IgG, PCSK9 in flow
Method: (§5) A goat Anti-Human IgG (Caltag, catalog #H10700) was covalently coupled to surfaces 1 and 2 of a Sensor Chip CM5 via primary amine groups, using the immobilization wizard with the “Aim for immobilization” option using Biacore™ Amine Coupling Kit (cat#BR-1000-50. A target immobilization of 5000 RU was specified. The wizard uses a 7 minute activation with a 1:1 mixture of 100 mM NHS (N-Hydroxysuccinimide) and 400 mM EDC (1-ethyl-3-(3-dimethylaminopropyl)-carbodiimide), injects the ligand in several pulses to achieve the desired level, then deactivates the remaining surface with a 7 minute pulse of ethanolamine.
(§6) Anti-PCSK9 IgGs were captured on capture surface 2, and surface 1 was used as a reference for kinetic studies of IgG:PCSK9 interactions. IgG was captured by flowing a 10 nM solution at 10 μl/min for 1-1.5 minutes to reach a target RL for an R max of 100-150 RU for the reaction. 5-10 concentrations of hPCSK9v5His or mPCSK9v5His antigens were flowed across the surface at 30 or 60 μl/minute for 4 minutes. 15-60 minutes dissociation time was allowed before regeneration of the Anti-IgG surface with a 60 second pulse of 10 mM Glycine pH 1.7.
(§7) BiaEvaluation Software was used to evaluate the sensograms from the multiple concentration of PCSK9 antigen analyzed with each IgG, to estimate the kinetics constants of the IgG:PCSK9 interactions.

[8] = biological target: T3, hPCSK9v5His; experiment: as above
Method: as §5, §6, §7

[9] = biological target: T3, hPCSK9v5His; experiment: Bio-Rad ProteOn SPR, Fab against human PCSK9-V5-His
Method: Additional site-directed mutant variants of 1B20 were generated (mutations in the heavy chain) and are disclosed herein as SEQ ID NOs: 102-107. Kds of site-directed mutant variants of 1B20 Fabs were determined using a Bio-Rad ProteOn; with affinity being measured against human PCSK9-V5-His. The methodologies for measuring Fab affinities are essentially the same as previously described for Biacore®.

T3 sequence (Q8NBP7 31-692 limits assumed): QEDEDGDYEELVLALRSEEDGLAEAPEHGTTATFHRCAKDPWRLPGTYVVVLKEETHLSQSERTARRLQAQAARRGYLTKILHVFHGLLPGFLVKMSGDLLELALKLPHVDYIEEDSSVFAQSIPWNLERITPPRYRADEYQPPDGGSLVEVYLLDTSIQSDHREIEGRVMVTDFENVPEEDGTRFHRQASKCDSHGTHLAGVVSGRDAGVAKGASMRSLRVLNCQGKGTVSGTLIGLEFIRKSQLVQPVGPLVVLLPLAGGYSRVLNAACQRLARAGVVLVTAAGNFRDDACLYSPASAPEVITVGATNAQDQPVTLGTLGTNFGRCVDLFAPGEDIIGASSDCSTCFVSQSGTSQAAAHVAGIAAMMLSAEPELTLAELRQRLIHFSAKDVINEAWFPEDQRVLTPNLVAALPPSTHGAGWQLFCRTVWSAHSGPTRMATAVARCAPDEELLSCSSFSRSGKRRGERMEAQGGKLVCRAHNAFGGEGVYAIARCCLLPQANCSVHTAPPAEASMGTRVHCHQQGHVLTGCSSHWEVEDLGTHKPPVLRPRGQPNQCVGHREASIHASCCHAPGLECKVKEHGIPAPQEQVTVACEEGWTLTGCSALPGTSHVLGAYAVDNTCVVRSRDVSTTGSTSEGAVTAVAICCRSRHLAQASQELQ
T2 sequence (Q80W65 35-694 limits assumed): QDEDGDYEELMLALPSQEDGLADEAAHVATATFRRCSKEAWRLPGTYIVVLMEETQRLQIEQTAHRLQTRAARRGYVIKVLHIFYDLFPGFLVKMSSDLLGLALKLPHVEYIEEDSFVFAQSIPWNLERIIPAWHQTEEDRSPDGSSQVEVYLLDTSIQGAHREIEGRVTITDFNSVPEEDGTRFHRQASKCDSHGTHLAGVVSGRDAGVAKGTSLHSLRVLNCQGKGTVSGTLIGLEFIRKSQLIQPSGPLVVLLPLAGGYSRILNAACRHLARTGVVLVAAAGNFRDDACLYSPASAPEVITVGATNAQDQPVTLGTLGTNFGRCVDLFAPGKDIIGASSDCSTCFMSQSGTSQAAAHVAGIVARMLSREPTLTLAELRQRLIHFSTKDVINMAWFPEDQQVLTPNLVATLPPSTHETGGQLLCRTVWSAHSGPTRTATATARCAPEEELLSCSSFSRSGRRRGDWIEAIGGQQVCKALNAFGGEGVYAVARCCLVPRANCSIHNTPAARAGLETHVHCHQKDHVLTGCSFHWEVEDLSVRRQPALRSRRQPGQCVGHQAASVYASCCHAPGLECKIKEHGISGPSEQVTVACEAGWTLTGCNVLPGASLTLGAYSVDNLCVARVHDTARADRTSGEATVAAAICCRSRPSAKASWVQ
T1 sequence (Q8NBP7 153-692, chain 1 of 2): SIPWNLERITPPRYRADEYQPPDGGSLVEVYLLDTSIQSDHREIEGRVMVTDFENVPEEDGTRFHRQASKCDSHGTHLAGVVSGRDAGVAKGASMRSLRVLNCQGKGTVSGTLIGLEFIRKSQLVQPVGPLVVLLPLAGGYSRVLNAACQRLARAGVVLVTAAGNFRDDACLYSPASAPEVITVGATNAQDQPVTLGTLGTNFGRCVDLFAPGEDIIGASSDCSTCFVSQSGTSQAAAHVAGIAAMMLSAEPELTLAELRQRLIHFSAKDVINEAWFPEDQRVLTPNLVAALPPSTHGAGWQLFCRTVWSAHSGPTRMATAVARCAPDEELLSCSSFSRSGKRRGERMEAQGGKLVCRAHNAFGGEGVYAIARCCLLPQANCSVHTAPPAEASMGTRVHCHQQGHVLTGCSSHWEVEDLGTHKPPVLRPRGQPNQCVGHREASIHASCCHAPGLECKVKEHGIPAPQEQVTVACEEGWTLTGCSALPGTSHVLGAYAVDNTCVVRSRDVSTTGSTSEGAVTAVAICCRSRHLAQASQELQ
T1 sequence (Q8NBP7 31-152, chain 2 of 2): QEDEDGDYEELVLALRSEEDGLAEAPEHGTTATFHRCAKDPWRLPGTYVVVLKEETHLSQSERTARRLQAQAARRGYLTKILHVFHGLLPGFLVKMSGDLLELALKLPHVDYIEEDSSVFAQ

B1: 1B20 Fab (Fab, V domains shown)
VH: QVQLVQSGAEVKKPGESLKISCKGSGYSFTNYWISWVRQMPGKGLEWMGIIYPGDSYTNYSPSFQGQVTISADKSISTAYLQWSSLKASDTAMYYCARDYWYKPLFDIWGQGTLVTVSS
VL: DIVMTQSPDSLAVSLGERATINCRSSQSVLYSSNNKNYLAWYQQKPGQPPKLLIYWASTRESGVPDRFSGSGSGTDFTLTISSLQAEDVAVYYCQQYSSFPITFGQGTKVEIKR
notes: His-tagged Fab expressed in E. coli and purified by IMAC; also called 6CX1B20
IC50 [1]: 25.8 nM | IC50, inhibition of PCSK9-dependent loss of cellular LDL-uptake (Exopolar assay, HEK cells) [2]: 152 nM | IC50, inhibition of PCSK9-dependent loss of cellular LDL-uptake (Exopolar assay, HEK cells) [3]: 145 nM | Ka [4]: 2e+09 M⁻¹ | Kd [4]: 0.51 nM | koff [4]: 7.2e-05 s⁻¹ | kon [4]: 141000 M⁻¹ s⁻¹ | Ka [5]: 1.5e+09 M⁻¹ | Kd [5]: 0.74 nM | koff [5]: 4.8e-05 s⁻¹ | kon [5]: 66000 M⁻¹ s⁻¹

B3: 1B20 Fab variant N59K (Fab, V domains shown)
VH: QVQLVQSGAEVKKPGESLKISCKGSGYSFTNYWISWVRQMPGKGLEWMGIIYPGDSYTKYSPSFQGQVTISADKSISTAYLQWSSLKASDTAMYYCARDYWYKPLFDIWGQGTLVTVSS
VL: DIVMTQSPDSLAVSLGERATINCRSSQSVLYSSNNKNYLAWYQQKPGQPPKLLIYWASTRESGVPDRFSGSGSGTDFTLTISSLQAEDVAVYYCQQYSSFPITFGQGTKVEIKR
notes: Site-directed variant of the 1B20 Fab, 'mutations in the heavy chain'
Kd [9]: 0.013 nM

B6: 1B20 Fab variant N59R (Fab, V domains shown)
VH: QVQLVQSGAEVKKPGESLKISCKGSGYSFTNYWISWVRQMPGKGLEWMGIIYPGDSYTRYSPSFQGQVTISADKSISTAYLQWSSLKASDTAMYYCARDYWYKPLFDIWGQGTLVTVSS
VL: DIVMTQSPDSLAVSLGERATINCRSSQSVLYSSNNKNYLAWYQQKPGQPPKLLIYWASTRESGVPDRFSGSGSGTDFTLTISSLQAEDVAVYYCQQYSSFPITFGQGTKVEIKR
notes: as for B3
Kd [9]: 0.049 nM

B7: 1B20 Fab variant N59Q (Fab, V domains shown)
VH: QVQLVQSGAEVKKPGESLKISCKGSGYSFTNYWISWVRQMPGKGLEWMGIIYPGDSYTQYSPSFQGQVTISADKSISTAYLQWSSLKASDTAMYYCARDYWYKPLFDIWGQGTLVTVSS
VL: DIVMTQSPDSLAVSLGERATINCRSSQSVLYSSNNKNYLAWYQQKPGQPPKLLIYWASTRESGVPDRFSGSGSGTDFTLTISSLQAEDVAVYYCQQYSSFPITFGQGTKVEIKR
notes: as for B3
Kd [9]: 0.117 nM

B8: 1B20 Fab variant W101A (Fab, V domains shown)
VH: QVQLVQSGAEVKKPGESLKISCKGSGYSFTNYWISWVRQMPGKGLEWMGIIYPGDSYTNYSPSFQGQVTISADKSISTAYLQWSSLKASDTAMYYCARDYAYKPLFDIWGQGTLVTVSS
VL: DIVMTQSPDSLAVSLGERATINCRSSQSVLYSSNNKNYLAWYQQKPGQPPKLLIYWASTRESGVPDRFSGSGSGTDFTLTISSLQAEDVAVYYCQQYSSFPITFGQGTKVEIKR
notes: as for B3
Kd [9]: 1.37 nM

More lines, now with the values ahead:

IC50 [6]: 2.8 nM | Ka [7]: 7.4e+08 M⁻¹ | Kd [7]: 1.4 nM | koff [7]: 0.00012 s⁻¹ | kon [7]: 89000 M⁻¹ s⁻¹ | Ka [8]: 1.4e+09 M⁻¹ | Kd [8]: 0.89 nM | koff [8]: 4.3e-05 s⁻¹ | kon [8]: 53000 M⁻¹ s⁻¹ | IC50, inhibition of PCSK9-dependent loss of cellular LDL-uptake (Exopolar assay, HEK cells) [2]: 13 nM | IC50, inhibition of PCSK9-dependent loss of cellular LDL-uptake (Exopolar assay, HEK cells) [3]: 22 nM
B2: 1B20 IgG (antibody, V domains shown)
VH: QVQLVQSGAEVKKPGESLKISCKGSGYSFTNYWISWVRQMPGKGLEWMGIIYPGDSYTNYSPSFQGQVTISADKSISTAYLQWSSLKASDTAMYYCARDYWYKPLFDIWGQGTLVTVSS
VL: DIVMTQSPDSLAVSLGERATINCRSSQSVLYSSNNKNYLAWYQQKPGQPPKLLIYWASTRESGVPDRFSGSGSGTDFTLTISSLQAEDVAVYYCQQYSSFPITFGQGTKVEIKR
notes: Full-length IgG2m4 with kappa light chain, expressed in HEK293 cells, purified on Protein A; also called 1B20 whole IgG; 1B20 IgG2m4

Kd [9]: 0.78 nM
B4: 1B20 Fab variant W101Y (Fab, V domains shown)
VH: QVQLVQSGAEVKKPGESLKISCKGSGYSFTNYWISWVRQMPGKGLEWMGIIYPGDSYTNYSPSFQGQVTISADKSISTAYLQWSSLKASDTAMYYCARDYYYKPLFDIWGQGTLVTVSS
VL: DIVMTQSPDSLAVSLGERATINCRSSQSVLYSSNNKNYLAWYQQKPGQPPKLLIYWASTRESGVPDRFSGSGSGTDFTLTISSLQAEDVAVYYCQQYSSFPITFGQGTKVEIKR
notes: as for B3

Kd [9]: 1.12 nM
B5: 1B20 Fab variant W101F (Fab, V domains shown)
VH: QVQLVQSGAEVKKPGESLKISCKGSGYSFTNYWISWVRQMPGKGLEWMGIIYPGDSYTNYSPSFQGQVTISADKSISTAYLQWSSLKASDTAMYYCARDYFYKPLFDIWGQGTLVTVSS
VL: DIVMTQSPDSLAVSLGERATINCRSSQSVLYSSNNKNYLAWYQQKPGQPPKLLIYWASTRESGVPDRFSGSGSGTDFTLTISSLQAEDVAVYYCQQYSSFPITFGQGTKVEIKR
notes: as for B3
